# Tests used:
# [1] = system: CD8+ T cells of healthy HLA-A*02 donors; assay: In vitro immunogenicity: T-cell priming with aAPCs loaded with peptide/MHC complexes and anti-CD28 antibody, pMHC multimer readout; assay type: cell-based, human; conditions: for Wells positive [%]: Table 10B; for donors: percentage of positive donors; for donors / wells: Table 10A; for wells: percentage of positive wells
# Text: In order to obtain information regarding the immunogenicity of the TUMAPs of the present invention, the inventors performed investigations using an in vitro T-cell priming assay based on repeated stimulations of CD8+ T cells with artificial antigen presenting cells (aAPCs) loaded with peptide/MHC complexes and anti-CD28 antibody.
# In order to perform in vitro stimulations by artificial antigen presenting cells loaded with peptide-MHC complex (pMHC) and anti-CD28 antibody, the inventors first isolated CD8+ T cells from fresh HLA-A*02 leukapheresis products via positive selection using CD8 microbeads (Miltenyi Biotec, Bergisch-Gladbach, Germany) of healthy donors obtained from the University clinics Mannheim, Germany, after informed consent.
# PBMCs and isolated CD8+ lymphocytes were incubated in T-cell medium (TCM) until use consisting of RPMI-Glutamax (Invitrogen, Karlsruhe, Germany) supplemented with 10% heat inactivated human AB serum (PAN-Biotech, Aidenbach, Germany), 100 U/ml Penicillin/100 μg/ml Streptomycin (Cambrex, Cologne, Germany), 1 mM sodium pyruvate (CC Pro, Oberdorla, Germany), 20 μg/ml Gentamycin (Cambrex). 2.5 ng/ml IL-7 (PromoCell, Heidelberg, Germany) and 10 U/ml IL-2 (Novartis Pharma, Nümberg, Germany) were also added to the TCM at this step.
# Generation of pMHC/anti-CD28 coated beads, T-cell stimulations and readout was performed in a highly defined in vitro system using four different pMHC molecules per stimulation condition and 8 different pMHC molecules per readout condition.
# The purified co-stimulatory mouse IgG2a anti human CD28 Ab 9.3 (Jung et al., 1987) was chemically biotinylated using Sulfo-N-hydroxysuccinimidobiotin as recommended by the manufacturer (Perbio, Bonn, Germany). Beads used were 5.6 μm diameter streptavidin coated polystyrene particles (Bangs Laboratories, Illinois, USA).
# pMHC used for positive and negative control stimulations were A*0201/MLA-001 (peptide […] (SEQ ID NO. 152) from modified Melan-A/MART-1) and A*0201/DDX5-001 ([…] from DDX5 (SEQ ID NO. 153)), respectively.
# 800.000 beads/200 μl were coated in 96-well plates in the presence of 4×12.5 ng different biotin-pMHC, washed and 600 ng biotin anti-CD28 were added subsequently in a volume of 200 μl. Stimulations were initiated in 96-well plates by co-incubating […] CD8+ T cells with 2×10^5 washed coated beads in 200 μl TCM supplemented with 5 ng/ml IL-12 (PromoCell) for 3 days at 37° C. Half of the medium was then exchanged by fresh TCM supplemented with 80 U/ml IL-2 and incubating was continued for 4 days at 37° C. This stimulation cycle was performed for a total of three times. For the pMHC multimer readout using 8 different pMHC molecules per condition, a two-dimensional combinatorial coding approach was used as previously described (Andersen et al., 2012) with minor modifications encompassing coupling to 5 different fluorochromes. Finally, multimeric analyses were performed by staining the cells with Live/dead near IR dye (Invitrogen, Karlsruhe, Germany), CD8-FITC antibody clone SK1 (BD, Heidelberg, Germany) and fluorescent pMHC multimers. For analysis, a BD LSRII SORP cytometer equipped with appropriate lasers and filters was used. Peptide specific cells were calculated as percentage of total CD8+ cells. Evaluation of multimeric analysis was done using the FlowJo software (Tree Star, Oregon, USA). In vitro priming of specific multimer+ CD8+ lymphocytes was detected by comparing to negative control stimulations.
# HLA-A*02:01 = HLA-A*02:01 (Homo sapiens, UniProt P04439, D140Y/D185E/D98H/E176V/E277Q/G131W/G231S/I119V/I121R/I166T/I218V/L300P/L318F/N151K/N90K/P208A/P217A/Q86G/Q94H/R138H/R169H/T345S); assay: MHC binding assay (UV-ligand exchange, beta2m ELISA, peptide exchange yield); conditions: binding to HLA-A*02:01 ranged by peptide exchange yield, β2m ELISA
# Text: Candidate peptides for T cell based therapies according to the present invention were further tested for their MHC binding capacity (affinity). The individual peptide-MHC complexes were produced by UV-ligand exchange, where a UV-sensitive peptide is cleaved upon UV-irradiation, and exchanged with the peptide of interest as analyzed. Only peptide candidates that can effectively bind and stabilize the peptide-receptive MHC molecules prevent dissociation of the MHC complexes. To determine the yield of the exchange reaction, an ELISA was performed based on the detection of the light chain (β2m) of stabilized MHC complexes. The assay was performed as generally described in Rodenko et al. (Rodenko et al., 2006).
# 96 well MAXISorp plates (NUNC) were coated over night with 2 ug/ml streptavidin in PBS at room temperature, washed 4× and blocked for 1 h at 37° C. in 2% BSA containing blocking buffer. Refolded HLA-A*02:01/MLA-001 monomers served as standards, covering the range of 15-500 ng/ml. Peptide-MHC monomers of the UV-exchange reaction were diluted 100 fold in blocking buffer. Samples were incubated for 1 h at 37° C., washed four times, incubated with 2 ug/ml HRP conjugated anti-β2m for 1h at 37° C., washed again and detected with TMB solution that is stopped with […]. Absorption was measured at 450 nm. Candidate peptides that show a high exchange yield (preferably higher than 50%, most preferred higher than 75%) are generally preferred for a generation and production of antibodies or fragments thereof, and/or T cell receptors or fragments thereof, as they show sufficient avidity to the MHC molecules and prevent dissociation of the MHC complexes.
substance,measurement,setting,value
1 (ALIVSLPYL; listed as Homo sapiens) [compound 1],Wells positive [%],[1],+ (<20% = +)
same,Peptide exchange (MHC class I binding score),HLA-A*02:01,+++ (≥50 = +++)
2 (ILWREVVTL; listed as Homo sapiens) [compound 2],Wells positive [%],[1],+ (<20% = +)
same,Peptide exchange (MHC class I binding score),HLA-A*02:01,+++ (≥50 = +++)
3 (RLLGEVQAL; listed as Homo sapiens) [compound 3],Wells positive [%],[1],+ (<20% = +)
same,Peptide exchange (MHC class I binding score),HLA-A*02:01,++ (≥20% = ++)
6 (VLFELSKTV; listed as Homo sapiens) [compound 6],Wells positive [%],[1],+ (<20% = +)
same,Peptide exchange (MHC class I binding score),HLA-A*02:01,+++ (≥50 = +++)
7 (FLLSLIDRL; listed as Homo sapiens) [compound 7],Wells positive [%],[1],+ (<20% = +)
same,Peptide exchange (MHC class I binding score),HLA-A*02:01,+++ (≥50 = +++)
9 (ILLQKPDSV; listed as Homo sapiens) [compound 9],Wells positive [%],[1],+ (<20% = +)
same,Peptide exchange (MHC class I binding score),HLA-A*02:01,++ (≥20% = ++)
79 (ALADIVWRA; listed as Homo sapiens) [compound 79],Peptide exchange (MHC class I binding score),HLA-A*02:01,+++ (≥50 = +++)
80 (KLASMLETL; listed as Homo sapiens) [compound 80],Peptide exchange (MHC class I binding score),HLA-A*02:01,+++ (≥50 = +++)
81 (SLLPALPKL; listed as Homo sapiens) [compound 81],Peptide exchange (MHC class I binding score),HLA-A*02:01,++ (≥20% = ++)
82 (SLLQATDFMSL; listed as Homo sapiens) [compound 82],Peptide exchange (MHC class I binding score),HLA-A*02:01,+++ (≥50 = +++)
83 (IQWSIVPEV; listed as Homo sapiens) [compound 83],Peptide exchange (MHC class I binding score),HLA-A*02:01,+++ (≥50 = +++)
84 (YLMDEGAHL; listed as Homo sapiens) [compound 84],Peptide exchange (MHC class I binding score),HLA-A*02:01,++ (≥20% = ++)
85 (FVMSEIRTV; listed as Homo sapiens) [compound 85],Peptide exchange (MHC class I binding score),HLA-A*02:01,+++ (≥50 = +++)
86 (GLLQGKLALL; listed as Homo sapiens) [compound 86],Peptide exchange (MHC class I binding score),HLA-A*02:01,++ (≥20% = ++)
88 (TLAELHISL; listed as Homo sapiens) [compound 88],Peptide exchange (MHC class I binding score),HLA-A*02:01,++ (≥20% = ++)
89 (SLLLAVTEV; listed as Homo sapiens) [compound 89],Peptide exchange (MHC class I binding score),HLA-A*02:01,++ (≥20% = ++)
90 (FTLEKNFVI; listed as Homo sapiens) [compound 90],Peptide exchange (MHC class I binding score),HLA-A*02:01,++ (≥20% = ++)
91 (MLLSSLVSL; listed as Homo sapiens) [compound 91],Peptide exchange (MHC class I binding score),HLA-A*02:01,++ (≥20% = ++)
92 (FLFRDILEL; listed as Homo sapiens) [compound 92],Peptide exchange (MHC class I binding score),HLA-A*02:01,+++ (≥50 = +++)
93 (GVMAGDIYSV; listed as Homo sapiens) [compound 93],Peptide exchange (MHC class I binding score),HLA-A*02:01,++++ (≥75% = ++++)
96 (TLAETLVNL; listed as Homo sapiens) [compound 96],Peptide exchange (MHC class I binding score),HLA-A*02:01,+++ (≥50 = +++)
97 (TLISELVQA; listed as Homo sapiens) [compound 97],Peptide exchange (MHC class I binding score),HLA-A*02:01,++ (≥20% = ++)
99 (GLAPHLEQI; listed as Homo sapiens) [compound 99],Peptide exchange (MHC class I binding score),HLA-A*02:01,++ (≥20% = ++)
100 (KLNVAPLAV; listed as Homo sapiens) [compound 100],Peptide exchange (MHC class I binding score),HLA-A*02:01,++ (≥20% = ++)
101 (HIYDKAFITV; listed as Homo sapiens) [compound 101],Peptide exchange (MHC class I binding score),HLA-A*02:01,++ (≥20% = ++)
102 (LLFDVHTTL; listed as Homo sapiens) [compound 102],Peptide exchange (MHC class I binding score),HLA-A*02:01,+++ (≥50 = +++)
103 (KLQDGLLHI; listed as Homo sapiens) [compound 103],Peptide exchange (MHC class I binding score),HLA-A*02:01,++ (≥20% = ++)
104 (ALFEGVVRQI; listed as Homo sapiens) [compound 104],Peptide exchange (MHC class I binding score),HLA-A*02:01,+++ (≥50 = +++)
105 (ALADLDELLIRA; listed as Homo sapiens) [compound 105],Peptide exchange (MHC class I binding score),HLA-A*02:01,+++ (≥50 = +++)
106 (VLMDLKALL; listed as Homo sapiens) [compound 106],Peptide exchange (MHC class I binding score),HLA-A*02:01,+++ (≥50 = +++)
107 (VLMDLKALLL; listed as Homo sapiens) [compound 107],Peptide exchange (MHC class I binding score),HLA-A*02:01,+++ (≥50 = +++)
108 (VLISVLQAI; listed as Homo sapiens) [compound 108],Peptide exchange (MHC class I binding score),HLA-A*02:01,++ (≥20% = ++)
109 (YLWSRVEKL; listed as Homo sapiens) [compound 109],Peptide exchange (MHC class I binding score),HLA-A*02:01,++++ (≥75% = ++++)
110 (LLDLHSYLL; listed as Homo sapiens) [compound 110],Peptide exchange (MHC class I binding score),HLA-A*02:01,++ (≥20% = ++)
111 (TLLETEMLL; listed as Homo sapiens) [compound 111],Peptide exchange (MHC class I binding score),HLA-A*02:01,++ (≥20% = ++)
112 (LLFDHLEPIEL; listed as Homo sapiens) [compound 112],Peptide exchange (MHC class I binding score),HLA-A*02:01,+++ (≥50 = +++)
113 (SLFDWNVKL; listed as Homo sapiens) [compound 113],Peptide exchange (MHC class I binding score),HLA-A*02:01,+++ (≥50 = +++)
114 (ALAVNISAA; listed as Homo sapiens) [compound 114],Peptide exchange (MHC class I binding score),HLA-A*02:01,+++ (≥50 = +++)
123 (YVDPVITSI; listed as Homo sapiens) [compound 123],donors,[1],++++ (> = 70% = ++++)
same,wells,[1],+ (<20% = +)
127 (VLAPLFVYL; listed as Homo sapiens) [compound 127],donors,[1],++++ (> = 70% = ++++)
same,wells,[1],++ (20%-49% = ++)
143 (ALFVRLLALA; listed as Homo sapiens) [compound 143],donors,[1],+++ (50%-69% = +++)
same,wells,[1],+ (<20% = +)

# From US12059458B2, “Peptides and combination of peptides and scaffolds for use in immunotherapy against renal cell carcinoma (RCC) and other cancers” (Immatics Biotechnologies GmbH, priority 2015, dated 2024)
